The values below come from article PMC6155552, “Arabidopsis thaliana alcohol dehydrogenase is differently affected by several redox modifications” (PLoS ONE, 2018).

Residue numbers refer to the chain shown, from its start. Numbers in names are those of the source.

The target of data set [1] is T1, ADH (recombinant A. thaliana alcohol dehydrogenase, ADH1, At1g77120) (Arabidopsis thaliana, UniProt P06525).
T1 construct: tag removal not mentioned
T1 sequence (P06525 1-379): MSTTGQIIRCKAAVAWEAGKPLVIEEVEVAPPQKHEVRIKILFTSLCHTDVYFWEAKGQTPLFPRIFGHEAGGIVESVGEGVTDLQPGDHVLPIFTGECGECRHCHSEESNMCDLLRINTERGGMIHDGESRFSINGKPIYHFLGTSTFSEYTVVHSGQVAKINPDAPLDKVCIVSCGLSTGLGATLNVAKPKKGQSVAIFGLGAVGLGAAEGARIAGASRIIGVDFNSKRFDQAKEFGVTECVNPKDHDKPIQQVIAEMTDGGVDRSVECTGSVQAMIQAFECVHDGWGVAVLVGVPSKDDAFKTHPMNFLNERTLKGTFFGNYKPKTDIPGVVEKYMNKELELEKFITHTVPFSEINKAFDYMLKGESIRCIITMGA
The data set is described as follows: protection of activity against inactivation by H2O2 or DEA/NO. The format is biochemical. Particulars: 0.02-0.2 mM NADH; 0.5 mM H2O2 or DEA/NO; 100 mM Tris-Cl pH 7.5; room temperature.

Substrate in data set [2]: NC(=O)c1ccc[n+]([C@@H]2O[C@H](COP(=O)(O)OP(=O)(O)OC[C@H]3O[C@@H](n4cnc5c(N)ncnc54)[C@H](O)[C@@H]3O)[C@@H](O)[C@H]2O)c1
The data set is described as follows: microplate ADH activity assay, non-linear regression. Format: biochemical, Arabidopsis thaliana. Particulars: ethanol-to-acetaldehyde direction; NAD+ varied 0-0.8 mM; 5 mM DTT. The text has this: microplate ADH activity assay, non-linear regression on ADH (recombinant A. thaliana alcohol dehydrogenase, ADH1, At1g77120)

The term Km denotes the substrate concentration at which the rate is half of its maximum. One may read the kcat as the number of substrate molecules converted per active site and unit of time at saturation. Broadly, the kcat/Km is the turnover number divided by the Michaelis constant.

As to `NC(=O)C1=CN([C@@H]2O[C@H](COP(=O)(O)OP(=O)(O)OC[C@H]3O[C@@H](n4cnc5c(N)ncnc54)[C@H](O)[C@@H]3O)[C@@H](O)[C@H]2O)C=CC1` [NADH], in data set [1], the “protection of activity against inactivation by H2O2 or DEA/NO” value was “presence of NADH allows the enzyme to keep a significantly higher activity level”.

B1: ADH (recombinant A. thaliana alcohol dehydrogenase, ADH1, At1g77120) (Arabidopsis thaliana) (protein)
chain: T1 sequence (P06525 1-379)
notes: tag removal not mentioned
Turning to B1, in data set [2], the Km stood at 166 ± 17 µM, the kcat was determined as 31.5 ± 2.7 s⁻¹ and the kcat/Km amounted to 191000 ± 8000 M⁻¹ s⁻¹.

B2: ADH (recombinant A. thaliana alcohol dehydrogenase, ADH1, At1g77120) (Arabidopsis thaliana; C243S) (protein)
chain: T1 sequence (P06525 1-379) with C243S
notes: tag removal not mentioned
As to B2, in data set [2], the Km amounted to 251 ± 17 µM, the kcat was 52.1 ± 3 s⁻¹ and the kcat/Km is 208000 ± 5000 M⁻¹ s⁻¹.
